Data as given in PMC10786891, “Massively parallel profiling of RNA-targeting CRISPR-Cas13d”.
Residue numbers refer to the chain shown, from its start. Names may count otherwise.

Biological target: T1, EsCas13d, nuclease-dead (Eubacterium siraeum, UniProt B0MS50, R295A;H300A;R849A;H854A)
T1 sequence: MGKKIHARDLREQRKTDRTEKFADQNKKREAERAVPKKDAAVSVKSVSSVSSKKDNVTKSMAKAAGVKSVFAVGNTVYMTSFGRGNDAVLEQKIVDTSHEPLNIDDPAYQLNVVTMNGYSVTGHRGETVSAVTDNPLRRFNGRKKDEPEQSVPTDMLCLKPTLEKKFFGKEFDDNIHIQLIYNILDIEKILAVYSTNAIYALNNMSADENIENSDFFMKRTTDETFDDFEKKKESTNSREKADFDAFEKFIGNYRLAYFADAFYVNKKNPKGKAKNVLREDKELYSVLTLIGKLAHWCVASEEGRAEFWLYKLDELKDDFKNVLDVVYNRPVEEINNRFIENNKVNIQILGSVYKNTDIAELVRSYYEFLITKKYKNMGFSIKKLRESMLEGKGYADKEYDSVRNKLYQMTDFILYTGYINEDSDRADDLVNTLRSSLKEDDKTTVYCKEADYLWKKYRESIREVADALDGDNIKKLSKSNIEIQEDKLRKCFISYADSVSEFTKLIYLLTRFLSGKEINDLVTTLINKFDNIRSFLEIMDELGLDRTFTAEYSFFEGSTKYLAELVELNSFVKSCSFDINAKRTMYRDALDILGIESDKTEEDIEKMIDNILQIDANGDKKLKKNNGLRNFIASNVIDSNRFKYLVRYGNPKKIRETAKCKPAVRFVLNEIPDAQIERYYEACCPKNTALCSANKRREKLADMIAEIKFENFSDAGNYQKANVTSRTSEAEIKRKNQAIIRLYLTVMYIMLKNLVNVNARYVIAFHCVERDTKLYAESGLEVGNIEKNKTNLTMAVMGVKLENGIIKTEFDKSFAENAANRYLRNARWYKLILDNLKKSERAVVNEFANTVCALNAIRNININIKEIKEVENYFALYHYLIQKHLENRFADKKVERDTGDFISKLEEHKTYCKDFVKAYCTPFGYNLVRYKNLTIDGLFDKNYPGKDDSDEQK
Test: crRNA (strand 1, pre-loaded); Mg2+; 40 mM Tris-HCl pH 7.5, 150 mM NaCl, 6 mM MgCl2, 1 mM DTT, 0.1% Tween-20, 0.2 mg/ml BSA; 25 C; 10 min per concentration, then washed
Conditions: tags: His6-TwinStrep-SUMO cleaved; N-terminal SNAP kept (SNAP-Surface 488); label: 3' end held by stalled T7 RNA polymerase

B1: target 1 A1U,U8A (mixed)
RNA 1: CACCCGUGCAAAAAUGCAGGGGUCUAAAACUGAGCGGAUAACCUCUCUAUGG
RNA 2: GGGAAUGGAUCCACAUCUACGAAUUCGUACCAUAGAGAGGUUAACCGCUCUCCGAGAUCGGAAGAGCACACGU
Kd: 26.7 ± 1.3 nM

B2: target 1 insU 3' of 14,insC 3' of 5 (mixed)
RNA 1: B1 RNA 1
RNA 2: GGGAAUGGAUCCACAUCUACGAAUUCGUACCAUAGAGAUGGUUAUCCGCCUCACCGAGAUCGGAAGAGCACACGU
Kd: ~60 nM

B3: target 1 A9G,A18U (mixed)
RNA 1: B1 RNA 1
RNA 2: B1 RNA 2 with A34U, A43G, A44U, U51A
Kd: 39.7 ± 3.1 nM

B4: target 1 U10G,A18U (mixed)
RNA 1: B1 RNA 1
RNA 2: B1 RNA 2 with A34U, U42G, A44U, U51A
Kd: 57 ± 9 nM

B5: target 3 insU 3' of 4,insC 3' of 4 (mixed)
RNA 1: CACCCGUGCAAAAUUGCAGGGGUCUAAAACGACCUGAAUAUUUCAGAUCAAA
RNA 2: GGGAAUGGAUCCACAUCUACGAAUUCGUUUUUGAUCUGAAAUAUUCAGUCGUCUGCAGAUCGGAAGAGCACACGU
Kd: 19.5 ± 2.5 nM

B6: target 3 insC 3' of 7,insA 3' of 4 (mixed)
RNA 1: B5 RNA 1
RNA 2: B5 RNA 2 with A47C, G48A, U49G, C50A
Kd: 97 ± 35 nM

B7: target 3 insA 3' of 7,insC 3' of 7 (mixed)
RNA 1: B5 RNA 1
RNA 2: B5 RNA 2 with C46A, A47C, G48C, U49A, C50G
Kd: 48 ± 5.5 nM

B8: target 3 U2A,G3A (mixed)
RNA 1: B5 RNA 1
RNA 2: GGGAAUGGAUCCACAUCUACGAAUUCGUUUUUGAUCUGAAAUAUUCAGAACUGCAGAUCGGAAGAGCACACGU
Kd: 38.5 ± 4 nM

B9: target 3 C6A (mixed)
RNA 1: B5 RNA 1
RNA 2: B8 RNA 2 with C46A, A49G, A50U
Kd: 36.2 ± 4.1 nM

B10: target 3 C1U,U22A (mixed)
RNA 1: B5 RNA 1
RNA 2: B8 RNA 2 with U30A, A49G, A50U, C51U
Kd: 25.9 ± 5.5 nM

B11: target 3 C1A,U22A (mixed)
RNA 1: B5 RNA 1
RNA 2: B8 RNA 2 with U30A, A49G, A50U, C51A
Kd: 13.6 ± 1.9 nM

B12: target 3 C1G,U8G (mixed)
RNA 1: B5 RNA 1
RNA 2: B8 RNA 2 with U44G, A49G, A50U, C51G
Kd: 35 ± 6 nM

B13: target 3 insC 3' of 19,insU 3' of 5 (mixed)
RNA 1: B5 RNA 1
RNA 2: GGGAAUGGAUCCACAUCUACGAAUUCGUUUUUGCAUCUGAAAUAUUCAUGGUCUGCAGAUCGGAAGAGCACACGU
Kd: 130 ± 40 nM

B14: target 3 insG 3' of 7 (mixed)
RNA 1: B5 RNA 1
RNA 2: GGGAAUGGAUCCACAUCUACGAAUUCGUUUUUGAUCUGAAAUAUUGCAGGUCUGCAGAUCGGAAGAGCACACGU
Kd: 65.5 ± 13.5 nM

B15: target 3 insC 3' of 9,insG 3' of 6 (mixed)
RNA 1: B5 RNA 1
RNA 2: B5 RNA 2 with U44C, C46U, A47C, U49A, C50G
Kd: 89 ± 23.5 nM

B16: target 3 insA 3' of 7,insU 3' of 5 (mixed)
RNA 1: B5 RNA 1
RNA 2: B5 RNA 2 with C46A, A47C, G48A, C50G
Kd: 15.7 ± 1.3 nM

B17: target 3 C1G,U22A (mixed)
RNA 1: B5 RNA 1
RNA 2: B8 RNA 2 with U30A, A49G, A50U, C51G
Kd: 25.1 ± 5.2 nM

B18: target 3 insC 3' of 8,insC 3' of 7 (mixed)
RNA 1: B5 RNA 1
RNA 2: B5 RNA 2 with U45C, C46U, A47C, G48C, U49A, C50G
Kd: 77.5 ± 16 nM

B19: target 3 U22A (mixed)
RNA 1: B5 RNA 1
RNA 2: B8 RNA 2 with U30A, A49G, A50U
Kd: 14.8 ± 1.45 nM

B20: target 3 C6A,U22C (mixed)
RNA 1: B5 RNA 1
RNA 2: B8 RNA 2 with U30C, C46A, A49G, A50U
Kd: 49.5 ± 7.5 nM

B21: target 3 insA 3' of 14 (mixed)
RNA 1: B5 RNA 1
RNA 2: B14 RNA 2 with U42A, A43U, U44A, G46U
Kd: 60 ± 12 nM

B22: target 3 insU 3' of 14,insU 3' of 5 (mixed)
RNA 1: B5 RNA 1
RNA 2: B13 RNA 2 with C34A, A35U, U36C, C37U, U38G, G39U
Kd: 83.5 ± 33.5 nM

B23: target 3 insU 3' of 22,insG 3' of 6 (mixed)
RNA 1: B5 RNA 1
RNA 2: B13 RNA 2 with G33U, C34G, A48G, U49A
Kd: 7.7 ± 0.65 nM

B24: target 3 C1G,C6A (mixed)
RNA 1: B5 RNA 1
RNA 2: B8 RNA 2 with C46A, A49G, A50U, C51G
Kd: 30.5 ± 5 nM

B25: target 3 insA 3' of 8,insG 3' of 5 (mixed)
RNA 1: B5 RNA 1
RNA 2: B5 RNA 2 with U45A, C46U, A47C, G48A, U49G, C50G
Kd: 68 ± 15 nM

B26: target 3 U2G,A12G (mixed)
RNA 1: B5 RNA 1
RNA 2: B8 RNA 2 with A40G, A49G, A50G
Kd: 33.5 ± 6 nM

B27: target 3 insA 3' of 7,insA 3' of 2 (mixed)
RNA 1: B5 RNA 1
RNA 2: B5 RNA 2 with C46A, A47C, G48A, U49G, C50G, G51U, U52A
Kd: 51 ± 8 nM

B28: target 3 U8G (mixed)
RNA 1: B5 RNA 1
RNA 2: B8 RNA 2 with U44G, A49G, A50U
Kd: 45 ± 6 nM

B29: target 3 A12G,U22C (mixed)
RNA 1: B5 RNA 1
RNA 2: B8 RNA 2 with U30C, A40G, A49G, A50U
Kd: 40.5 ± 8.5 nM

B30: target 3 A5G,U7G (mixed)
RNA 1: B5 RNA 1
RNA 2: B8 RNA 2 with U45G, A47G, A49G, A50U
Kd: 44 ± 6 nM

B31: target 3 U2G,U21C (mixed)
RNA 1: B5 RNA 1
RNA 2: B8 RNA 2 with U31C, A49G, A50G
Kd: 60 ± 24.5 nM

B32: target 3 insU 3' of 14,insA 3' of 3 (mixed)
RNA 1: B5 RNA 1
RNA 2: B13 RNA 2 with C34A, A35U, U36C, C37U, U38G, G39U, U49G, G51A
Kd: ~100 nM

B33: target 3 C1U,C16U (mixed)
RNA 1: B5 RNA 1
RNA 2: B8 RNA 2 with C36U, A49G, A50U, C51U
Kd: 66.5 ± 15.5 nM
